Measured values published in patent publication US20210009984A1.

Biological target: mannose-6-phosphate receptors (M6PR) (human)
Assay: cell-based or functional assay

agalsidase-beta (from UniProt P06280 32-429) (enzyme)
Km value, Michaelis-Menten constant that represents a half of the maximum absorption rate (intracellular absorption in CCD986SK cells, read by enzyme activity after 24 hours): 0.0109 µM

alpha-galactosidase-Fc fusion protein
Km value, Michaelis-Menten constant that represents a half of the maximum absorption rate (intracellular absorption in CCD986SK cells, read by enzyme activity after 24 hours): 0.0116 µM
